{
  "source": "patent US7132258B1",
  "about": "“Nucleic acid encoding vitamin D receptor related polypeptide” (University of Massachusetts, priority 1998, dated 2006)",
  "key": {"[1]": {"biological_target": "T1, COUP (LBD of COUP-TFI) (Homo sapiens, UniProt P10589)", "T1 construct": "COUP (LBD of COUP-TFI); expressed in transfected cells; host or cells: Saccharomyces cerevisiae Y190", "T1 sequence (P10589 184-410 limits assumed)": "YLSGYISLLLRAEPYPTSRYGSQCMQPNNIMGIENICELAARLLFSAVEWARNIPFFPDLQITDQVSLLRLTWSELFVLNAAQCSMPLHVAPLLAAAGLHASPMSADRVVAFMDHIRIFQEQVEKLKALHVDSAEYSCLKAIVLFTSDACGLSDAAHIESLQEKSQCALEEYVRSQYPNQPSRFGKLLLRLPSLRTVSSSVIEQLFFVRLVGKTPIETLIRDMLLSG", "experiment": "Yeast two-hybrid interaction with COUP-TFI", "assay_type": "binding", "details": "β-galactosidase ONPG assay", "method": "(§1) The protein—protein interactions between RAC3 and several steroid/nuclear receptors were analyzed by the yeast two-hybrid system. The original two-hybrid clone, RAC3.1 in pGAD10 vector, was retransformed together with yeast expression vectors for Gal4 DBD fusion of selected hormone receptor genes into Y190 cells. The receptors used include RAR (full-length hRARα), RXR (full-length hRXRα), VDR (LBD of human Vitamin D receptor), PPAR (LBD of mPPARα), TR (LBD) of hTRβ), COUP (LBD of COUP-TFI). Three independent colonies from each transformation were selected and analyzed for expression of […] activities by liquid ONPG assay (FIG. 6) after treatment with 1 μM of corresponding ligands (closed bars), or with equal concentration of vehicle alone (open bars). […] The ligands used in these experiments were atRA, VitD3 (1,25-dihydroxyvitamin D3), and Wy (Wy 14,642). […] In the absence of ligand, RAC3 can interact with RAR and PPAR."}, "[2]": {"system": "histone", "experiment": "Histone acetyltransferase (HAT) activity", "assay_type": "biochemical", "details": "compared with the p/CAF; unpublished data"}, "[3]": {"system": "CBP", "experiment": "Far-Western analysis of interaction with GST-CBP fusions", "assay_type": "binding", "details": "35S-labeled full-length RAC3", "method": "GST fusion proteins were overexpressed and purified from DH5α cells on glutathione agarose beads. The fusion proteins were separated on denaturing protein gels (SDS-PAGE) and electroblotted onto nitrocellulose filters in a transfer buffer (25 mM Tris-HCl, pH 8.3; 192 mM glycine; 0.01% SDS). After denaturation in 6 M guanidine hydrochloride (GnHCl), the proteins were renatured by stepwise dilution of GnHCl to 0.187 M in HB buffer (25 mM Hepes, pH 7.7; 25 mM NaCl; 5 mM MgC12; 1 mM DTT). The filters were then saturated with blocking buffer (5% non-fat milk, then 1% milk in HB buffer plus 0.05% NP40) at 4° C. overnight. In vitro translated 35S-labeled proteins were generated in reticulocyte lysate (Promega) and were diluted into a hybridization buffer (20 mM Hepes, pH 7.7; 75 mM KCl; 0.1 mM EDTA; 2.5 mM MgC12; 0.05% NP40; 1% milk; 1 mM DTT). […] The bound 35S-labeled proteins were detected by autoradiography.\nSince SRC-1 can interact with the general transcriptional coactivator CBP and p300 (Yao, T. P., et al. (1996) Proc Natl Acad Sci USA 93, 10626–31.), it was determined whether RAC3 can also interact with CBP by far-Western analyses. Serial GST-CBP fusions covering the SRC-1 interacting domain were analyzed for interactions with ^35S-labeled full-length RAC3, SRC-1 and RAC3-AD (FIGS. 3A, B and C). […]"}, "[4]": {"biological_target": "T2, RAR (full-length hRARα) (Homo sapiens, UniProt P10276)", "T2 construct": "RAR (full-length hRARα); expressed in transfected cells; host or cells: Saccharomyces cerevisiae Y190", "T2 sequence (P10276 1-462)": "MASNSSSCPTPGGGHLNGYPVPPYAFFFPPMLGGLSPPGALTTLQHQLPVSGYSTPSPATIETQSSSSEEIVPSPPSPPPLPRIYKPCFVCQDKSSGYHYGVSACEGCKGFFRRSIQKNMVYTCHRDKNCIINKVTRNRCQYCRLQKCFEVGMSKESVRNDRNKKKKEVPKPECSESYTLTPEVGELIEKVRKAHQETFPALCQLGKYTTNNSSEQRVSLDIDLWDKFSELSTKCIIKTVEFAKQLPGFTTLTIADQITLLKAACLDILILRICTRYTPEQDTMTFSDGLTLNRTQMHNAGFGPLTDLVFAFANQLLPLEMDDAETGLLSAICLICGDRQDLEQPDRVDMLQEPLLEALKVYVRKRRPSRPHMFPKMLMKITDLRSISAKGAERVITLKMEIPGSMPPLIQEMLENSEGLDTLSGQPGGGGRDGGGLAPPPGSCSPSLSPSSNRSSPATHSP", "T2 sequence (Q9Y6Q9 401-1204 E704Q partner limits assumed)": "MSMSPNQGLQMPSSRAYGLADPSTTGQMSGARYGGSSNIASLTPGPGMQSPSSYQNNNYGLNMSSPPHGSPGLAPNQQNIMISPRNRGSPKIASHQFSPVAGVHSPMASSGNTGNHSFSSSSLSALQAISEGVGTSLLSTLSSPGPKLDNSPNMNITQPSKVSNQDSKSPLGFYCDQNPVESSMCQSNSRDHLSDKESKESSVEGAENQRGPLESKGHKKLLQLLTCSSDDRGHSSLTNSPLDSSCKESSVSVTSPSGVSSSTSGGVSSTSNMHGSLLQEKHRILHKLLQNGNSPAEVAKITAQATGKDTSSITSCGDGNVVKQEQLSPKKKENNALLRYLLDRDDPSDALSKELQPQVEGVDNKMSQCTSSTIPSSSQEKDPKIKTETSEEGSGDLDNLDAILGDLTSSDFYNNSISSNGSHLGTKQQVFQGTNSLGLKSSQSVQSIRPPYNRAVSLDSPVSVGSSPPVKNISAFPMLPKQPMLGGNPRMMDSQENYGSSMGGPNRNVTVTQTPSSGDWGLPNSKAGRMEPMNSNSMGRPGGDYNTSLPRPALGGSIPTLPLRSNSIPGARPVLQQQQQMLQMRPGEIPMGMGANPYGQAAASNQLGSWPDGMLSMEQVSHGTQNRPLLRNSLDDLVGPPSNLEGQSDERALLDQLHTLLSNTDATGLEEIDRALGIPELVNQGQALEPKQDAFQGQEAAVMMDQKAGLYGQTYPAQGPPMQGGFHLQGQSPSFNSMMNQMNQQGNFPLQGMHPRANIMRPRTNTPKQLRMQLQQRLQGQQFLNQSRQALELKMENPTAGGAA", "experiment": "Yeast two-hybrid interaction with RAR", "assay_type": "binding", "details": "β-galactosidase ONPG assay, 1 μM ligand or vehicle", "method": "as §1"}},
  "data": [
    {"substance": "RAC3: transcriptional coactivator of steroid/nuclear receptors, protein of about 1417 amino acids (SEQ ID NO:2); RAC3.1 is the two-hybrid clone, amino acids 401–1204", "values": [
      {"measurement": "interaction with COUP-TFI", "setting": "[1]", "value": "did not interact"},
      {"measurement": "HAT activity", "setting": "[2]", "value": "very weakly"},
      {"measurement": "interaction with CBP fragments C and D", "setting": "[3]", "value": "interacts strongly"},
      {"measurement": "interaction with RAR", "setting": "[4]", "value": "Ligand treatment enhanced these interactions"}
    ]}
  ]
}
